Results from article PMC6847799, “A global functional analysis of missense mutations reveals two major hotspots in the PALB2 tumor suppressor” (Nucleic Acids Research, 2019).

Molecular target: T1, GAL4DBD-BRCA1 wild-type (aa 1315–1863) (UniProt P38398 1315-1863)
T1 construct: BRCA1, aa 1315-1863; bait of the mammalian two-hybrid; source: HEK293FT, transfected (mammalian two-hybrid fusion)
Assay: two-hybrid; mammalian two-hybrid in HEK293FT cells: VP16 AD-PALB2 N- or C-terminal construct (prey) co-transfected with GAL4DBD-BRCA1 or GAL4DBD-BRCA2 (bait), pG5Luc reporter and pGR-TK internal control; dual-luciferase read 24 h post-transfection; mean percentage luciferase activity of 3 independent experiments
Conditions: partners not purified

T1 sequence (P38398 1315-1863): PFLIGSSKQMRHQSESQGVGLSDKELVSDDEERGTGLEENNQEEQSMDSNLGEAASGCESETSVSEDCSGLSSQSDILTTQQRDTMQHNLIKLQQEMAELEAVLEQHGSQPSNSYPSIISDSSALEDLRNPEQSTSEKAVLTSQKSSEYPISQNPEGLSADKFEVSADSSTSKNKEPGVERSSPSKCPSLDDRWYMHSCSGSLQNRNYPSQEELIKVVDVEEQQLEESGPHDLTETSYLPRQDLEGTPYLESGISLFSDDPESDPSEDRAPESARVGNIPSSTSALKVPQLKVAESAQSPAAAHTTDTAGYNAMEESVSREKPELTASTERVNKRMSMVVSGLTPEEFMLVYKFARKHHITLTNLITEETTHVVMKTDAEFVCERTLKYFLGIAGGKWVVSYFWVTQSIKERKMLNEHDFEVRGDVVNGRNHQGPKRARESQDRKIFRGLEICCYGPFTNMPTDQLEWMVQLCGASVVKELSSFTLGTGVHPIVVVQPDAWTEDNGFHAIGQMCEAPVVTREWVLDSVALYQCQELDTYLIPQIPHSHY

fold increase of luciferase-reporter activity over BRCA1 alone: 2 fold
B1: VP16 AD-PALB2 N-terminal wild-type (aa 1–319) (domain or fragment, human, UniProt Q86YC2 1-319, looked up)
chain: MDEPPGKPLSCEEKEKLKEKLAFLKREYSKTLARLQRAQRAEKIKHSIKKTVEEQDCLSQQDLSPQLKHSEPKNKICVYDKLHIKTHLDEETGEKTSITLDVGPESFNPGDGPGGLPIQRTDDTQEHFPHRVSDPSGEQKQKLPSRRKKQQKRTFISQERDCVFGTDSLRLSGKRLKEQEEISSKNPARSPVTEIRTHLLSLKSELPDSPEPVTEINEDSVLIPPTAQPEKGVDTFLRRPNFTRATTVPLQTLSDSGSSQHLEHIPPKGSSELTTHDLKNIRFTSPVSLEAQGKKMTVSTDNLLVNKAISKSGQLPTSS
notes: PALB2 (1186-amino acid protein), human, aa 1-319; cloned in pVP16 downstream of the VP16 AD cassette; prey; also called PALB2 WT; PALB2 N-terminal construct; source: HEK293FT, transfected (mammalian two-hybrid fusion)
